# Experimental data taken from patent US20200392225A1 (Novartis, published 2020).
# T1: human NPR1 expressed on CHO-K1 cells (human, UniProt P16066 33-1061)
# T1 sequence: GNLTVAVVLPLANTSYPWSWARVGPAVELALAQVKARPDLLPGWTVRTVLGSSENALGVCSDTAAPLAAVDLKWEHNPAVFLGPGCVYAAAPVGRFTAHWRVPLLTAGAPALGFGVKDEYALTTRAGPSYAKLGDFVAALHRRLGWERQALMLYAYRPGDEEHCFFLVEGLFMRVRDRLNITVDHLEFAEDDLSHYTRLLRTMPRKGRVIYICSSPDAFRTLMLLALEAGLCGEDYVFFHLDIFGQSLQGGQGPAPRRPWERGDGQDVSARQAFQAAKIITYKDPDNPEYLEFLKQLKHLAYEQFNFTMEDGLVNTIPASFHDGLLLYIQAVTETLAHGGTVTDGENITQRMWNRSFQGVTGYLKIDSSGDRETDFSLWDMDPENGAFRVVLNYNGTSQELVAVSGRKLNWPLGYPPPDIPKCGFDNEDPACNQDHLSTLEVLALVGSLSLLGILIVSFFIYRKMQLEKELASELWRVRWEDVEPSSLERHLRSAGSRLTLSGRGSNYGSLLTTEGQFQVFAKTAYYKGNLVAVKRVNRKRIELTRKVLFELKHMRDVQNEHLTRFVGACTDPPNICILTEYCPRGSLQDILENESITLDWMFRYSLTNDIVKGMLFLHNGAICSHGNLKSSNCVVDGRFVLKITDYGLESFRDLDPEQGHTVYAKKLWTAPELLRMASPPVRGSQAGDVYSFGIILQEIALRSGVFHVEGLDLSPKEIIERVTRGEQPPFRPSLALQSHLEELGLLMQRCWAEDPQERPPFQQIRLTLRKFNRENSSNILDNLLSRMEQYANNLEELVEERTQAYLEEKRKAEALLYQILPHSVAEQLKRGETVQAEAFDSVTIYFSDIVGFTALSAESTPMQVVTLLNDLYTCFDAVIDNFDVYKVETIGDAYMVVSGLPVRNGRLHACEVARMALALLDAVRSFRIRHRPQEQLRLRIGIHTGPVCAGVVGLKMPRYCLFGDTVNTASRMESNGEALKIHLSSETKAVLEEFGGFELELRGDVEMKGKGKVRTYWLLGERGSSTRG
# T2: human NPR1-ANP complex (human, UniProt P01160 124-151, limits assumed)
# T2 construct: Receptor antigen measured in the presence of ANP; also called hNPR1 + ANP; hNPR1-ANP-complex
# T2 sequence: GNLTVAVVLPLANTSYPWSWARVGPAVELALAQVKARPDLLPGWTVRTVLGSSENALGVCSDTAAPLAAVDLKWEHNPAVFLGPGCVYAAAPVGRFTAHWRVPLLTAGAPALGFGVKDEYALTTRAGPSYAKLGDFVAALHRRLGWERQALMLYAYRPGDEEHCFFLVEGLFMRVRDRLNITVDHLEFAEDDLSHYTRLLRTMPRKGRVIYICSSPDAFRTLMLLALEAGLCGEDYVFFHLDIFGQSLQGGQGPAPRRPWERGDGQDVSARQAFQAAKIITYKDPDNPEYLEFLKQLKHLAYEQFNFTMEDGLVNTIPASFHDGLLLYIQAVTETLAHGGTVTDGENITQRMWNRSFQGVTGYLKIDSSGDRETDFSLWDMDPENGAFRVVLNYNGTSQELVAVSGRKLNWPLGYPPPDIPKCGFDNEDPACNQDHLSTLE
# T2 sequence (peptide): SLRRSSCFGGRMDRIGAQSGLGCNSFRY
# T3: human NPR1 expressed on CHO-K1 cells in the presence of ANP (human, UniProt P01160 124-151)
# T3 construct: also called hNPR1 CHO K1 + 100 nM ANP
# T3 sequence: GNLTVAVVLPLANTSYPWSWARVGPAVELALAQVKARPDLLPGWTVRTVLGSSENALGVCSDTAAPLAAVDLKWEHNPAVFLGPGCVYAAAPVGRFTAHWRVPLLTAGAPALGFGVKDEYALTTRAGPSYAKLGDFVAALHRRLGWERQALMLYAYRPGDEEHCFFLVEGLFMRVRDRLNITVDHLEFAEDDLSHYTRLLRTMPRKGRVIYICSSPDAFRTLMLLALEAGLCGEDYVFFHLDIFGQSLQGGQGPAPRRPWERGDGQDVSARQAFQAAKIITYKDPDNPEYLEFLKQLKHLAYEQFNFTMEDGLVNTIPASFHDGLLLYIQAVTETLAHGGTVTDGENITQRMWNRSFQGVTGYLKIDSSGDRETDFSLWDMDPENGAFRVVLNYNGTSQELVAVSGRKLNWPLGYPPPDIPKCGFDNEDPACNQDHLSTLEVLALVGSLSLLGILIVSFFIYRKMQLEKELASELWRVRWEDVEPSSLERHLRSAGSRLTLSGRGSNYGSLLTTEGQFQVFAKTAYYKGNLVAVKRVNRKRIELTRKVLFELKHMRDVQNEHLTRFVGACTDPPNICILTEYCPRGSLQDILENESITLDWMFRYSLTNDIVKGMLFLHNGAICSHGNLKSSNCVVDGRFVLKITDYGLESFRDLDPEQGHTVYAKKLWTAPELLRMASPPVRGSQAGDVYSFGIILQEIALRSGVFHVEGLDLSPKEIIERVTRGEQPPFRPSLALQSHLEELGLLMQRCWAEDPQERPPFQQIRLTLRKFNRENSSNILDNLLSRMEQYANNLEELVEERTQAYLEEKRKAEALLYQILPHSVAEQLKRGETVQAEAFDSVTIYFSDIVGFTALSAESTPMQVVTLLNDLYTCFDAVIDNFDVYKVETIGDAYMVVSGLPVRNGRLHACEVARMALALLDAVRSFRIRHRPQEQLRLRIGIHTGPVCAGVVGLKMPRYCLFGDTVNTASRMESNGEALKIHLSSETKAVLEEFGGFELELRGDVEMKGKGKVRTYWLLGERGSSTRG
# T3 sequence (peptide): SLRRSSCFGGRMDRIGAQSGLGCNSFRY
# How the values were obtained:
# [1] = molecular target: T1, human NPR1 expressed on CHO-K1 cells; experiment: cell-based or functional assay
# rat NPR1-ANP complex [2] = molecular target: T4, rat NPR1-ANP complex (rat); experiment: ELISA, IgG titrated on the antigen with 250 fold molar excess of ANP
# T4 construct: Rat receptor antigen measured in the presence of ANP; also called rNPR1 + ANP; rNPR1-ANP-complex
# human NPR1-ANP complex [3] = molecular target: T2, human NPR1-ANP complex; experiment: ELISA, 1 uM IgG, +100 nM ANP
# rat NPR1-ANP complex [4] = molecular target: T4, rat NPR1-ANP complex; experiment: ELISA, 1 uM IgG, +100 nM ANP
# [5] = molecular target: T3, human NPR1 expressed on CHO-K1 cells in …; experiment: flow cytometry, 1 uM IgG, +100 nM ANP
# human NPR1-ANP complex [6] = molecular target: T2, human NPR1-ANP complex; experiment: ELISA, IgG titrated on the antigen with 250 fold molar excess of ANP [cont.]
# [7] = molecular target: T1, human NPR1 expressed on CHO-K1 cells; experiment: cell-based or functional assay; remark: listed apart in the source
# T4 sequence (P18910 29-469, one chain of several): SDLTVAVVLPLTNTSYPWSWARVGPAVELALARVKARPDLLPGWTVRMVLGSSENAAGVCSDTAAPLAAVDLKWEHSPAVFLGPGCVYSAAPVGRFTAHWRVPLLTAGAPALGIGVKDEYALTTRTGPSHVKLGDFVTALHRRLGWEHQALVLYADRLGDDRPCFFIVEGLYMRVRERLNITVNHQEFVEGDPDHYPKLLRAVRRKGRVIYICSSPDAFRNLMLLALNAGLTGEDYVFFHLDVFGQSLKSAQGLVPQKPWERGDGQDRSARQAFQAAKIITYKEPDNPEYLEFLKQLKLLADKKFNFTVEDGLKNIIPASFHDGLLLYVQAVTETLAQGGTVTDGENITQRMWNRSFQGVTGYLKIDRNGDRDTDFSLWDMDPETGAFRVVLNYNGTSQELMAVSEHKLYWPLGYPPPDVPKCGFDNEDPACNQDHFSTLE
Binder,"cGMP conc [nM] at 1 uM FabCys, +0.075 nM ANP [1] [nM]","cGMP conc [nM] at 1 uM FabCys, without ANP [1] [nM]",EC50 (read off the curve) (rat NPR1-ANP complex [2]) [nM],other results
"YY05 FabCys (Fab, V domains shown) VH: EVQLVQSGAEVKKPGESLKISCKGSGYSFTSYWISWVRQMPGKGLEWMGIIYPGTSYTRYSPSFQGQVTISADKSISTAYLQWSSLKASDTAMYYCARGAVAGQLGFDHWGQGTLVTVSS VL: QSVLTQPPSVSGAPGQRVTISCTGSSSNIGAGYDVHWYQQLPGTAPKLLIYGNSNRPSGVPDRFSGSKSGTSASLAITGLQAEDEADYYCQSYYTSSHGPVFGGGTKLTVL",227,207,–,–
"YY06 FabCys (Fab, V domains shown) VH: EVQLLESGGGLVQPGGSLRLSCAASGFTFSSYAISWVRQAPGKGLEWVSAISGSGGSTYYAESVKGRFTISRDNSKNTLYLQMNSLRAEDTAVYYCARPYLGDRRSYGFDHWGQGTLVTVSS VL: QSALTQPASVSGSPGQSITISCTGTSSDVGSYNLVSWYQQHPGKAPKLMIYEGSKRPSGVSNRFSGSKSGNTASLTISGLQAEDEADYYCSSYGFHIVVVVFGGGTKLTVL",75,20,–,–
"XX04 IgG (antibody, V domains shown, also called XX04_LALA) VH: QVQLLESGGGLVQPGGSLRLSCAASGFTFSSYWMNWVRQAPGKGLEWVSAISSDGSYTYYADSVKGRFTISRDNSKNTLYLQMNSLRAEDTAVYYCARDRYSMIYSYGAGAFDYWGQGTLVTVSS VL: DIQMTQSPSSLSASVGDRVTITCRASQGISSYLAWYQQKPGKAPKLLIYTASTLQSGVPSRFSGSGSGTDFTLTISSLQPEDFATYYCQQEWVKPRTFGQGTKVEIKR",–,–,~0.2,–
"YY04 IgG (YY04_LALA) (antibody, V domains shown) VH: EVQLVESGGGLVKPGGSLRLSCAASGFTFSNYWISWVRQAPGKGLEWVGRIKSKTYGGTTDYAEPVKGRFTISRDDSKNTLYLQMNSLKTEDTAVYYCAREKYSIRARGHGDYGFDVWGQGTLVTVSS VL: DIQMTQSPSSLSASVGDRVTITCRASQGISNYLAWYQQKPGKVPKLLIYAASTLQSGVPSRFSGSGSGTDFTLTISSLQPEDVATYYCQQGYHAPFTFGQGTKVEIKR",–,–,–,ELISA IgG binding at 1 uM IgG (unit not given) (human NPR1-ANP complex [3]): 60; ELISA IgG binding at 1 uM IgG (unit not given) (rat NPR1-ANP complex [4]): 54; flow cytometry S/BG [5]: 33 S/BG; EC50 (read off the curve) (human NPR1-ANP complex [6]): ~0.3 nM
"XX03 IgG (antibody, V domains shown, also called XX03_LALA) VH: EVQLLESGGGLVQPGGSLRLSCAASGFTFSSYWMNWVRQAPGKGLEWVSVIESKGNYIFYADSVKGRFTISRDNSKNTLYLQMNSLRAEDTAVYYCARDRYSMIYSYGAGAFDYWGQGTLVTVSS VL: DIQMTQSPSSLSASVGDRVTITCRASQGISSYLAWYQQKPGKAPKLLIYTASTLQSGVPSRFSGSGSGTDFTLTISSLQPEDFATYYCMQSYEKPRTFGQGTKVEIKR",–,–,~0.2,–
"WW06 FabCys (Fab, V domains shown) VH: QVQLVQSGAEVKKPGESLKISCKGSGYSFTSYWIAWVRQMPGKGLEWMGRIDPDNSYTRYSPSFQGQVTISADKSISTAYLQWSSLKASDTAMYYCARWLSPGYALGEQPAGMDHWGQGTLVTVSS VL: DIVLTQPPSVSGAPGQRVTISCTGSSSNIGAGYAVHWYQQLPGTAPKLLIYSNNKRPSGVPDRFSGSKSGTSASLAITGLQAEDEADYYCQSYDLQKSSRVFGGGTKLTVL",–,–,–,"cGMP conc [nM] at 2 uM FabCys, +0.075 nM ANP [7]: 251 nM; cGMP conc [nM] at 2 uM FabCys, without ANP [7]: 281 nM"
